Assay results from US20090252717A1, “Compositions and Methods for Treating Polyglutamine-Expansion Neurodegenerative Diseases” (priority 2006, published 2009).

Legend:
fast axonal transport = assay: Vesicle motility assay in isolated squid axoplasm, perfusion of recombinant protein alone; type: cell-based, squid Loligo pealeii
Method: Recombinant Polypeptides. Wild-type androgen receptor and polyQ-AR polypeptides were produced by in vitro transcription/translation (TNT T7-Coupled Reticulocyte Lysate System; Promega, Madison, Wis.) according to manufacturer's protocols. Typically, 1.8 μg of plasmid was transcribed in 50 μl reaction mix. To assess protein levels, parallel reactions were performed incorporating ^35S-labeled methionine (Amersham) or quantitative immunoblots were performed. Protein concentrations were typically 0.2-0.5 nM. In vitro translated androgen receptor has been characterized and shown to be functional (Kuiper, et al. (1993) Biochem. J. 296(Pt 1):161-7). In vitro translation products were briefly centrifuged to eliminate translation machinery, and supernatants frozen in liquid N2 until used.
Genes encoding human wild-type Huntingtin (Htt) (i.e., Q20, residues 1-548; Szebenyi, et al. (2003) supra) and polyQ-expanded Htt (i.e., Q46, residues 1-949; Qin, et al. (2004) J. Neurosci. 24(1):269-81) were cloned into the pcDNA.3 vector and produced by in vitro transcription/translation as described for the androgen receptor. Alternatively, shorter constructs (Htt exon1) were expressed in E. coli as GST-tagged proteins.
Squid Axoplasm. Isolated squid axoplasm represents a unique experimental system to evaluate axonal-specific effects and pathogenic mechanisms. This model was instrumental in the original discovery of kinesin-1 (Brady (1985) Nature 317:73-75, novel pathways for fast axonal transport (Morfini, et al. (2002) supra; Morfini, et al. (2004) supra), and axonal-specific phosphorylation events (Grant & Pant (2000) J. Neurocytol. 29:843-72). Bidirectional membrane-bound organelle movements are observed with properties unchanged from intact axons for hours after removal of plasma membrane (Brady, et al. (1982) Science 218:1129-1131). Video-enhanced microscopic techniques allow quantitative analysis of membrane-bound organelle movement in fast axonal transport. Typical kinesin-dependent transport rates are 1.5-2.0 μm/s, whereas retrograde, cytoplasmic dynein-dependent rates are 1-1.3 μm/s in perfused axoplasms. These rates are maintained with little (<10%) or no reduction for >1 hour after perfusion with control buffer (Brady, et al. (1982) supra). The lack of permeability barriers allows perfusion of the axoplasm with a variety of effector molecules at known concentrations. Effectors of interest include nucleotides, pharmacological inhibitors, recombinant polypeptides, and antibodies. Typically, 6-His, Hemagglutinin, Myc and GST-tagged recombinant proteins are either expressed in bacteria or in vitro translated, purified and perfused (Szebenyi, et al. (2003) supra; Morfini, et al. (2002) supra).
Motility Studies in Isolated Axoplasm. Axoplasm was extruded from giant axons of the squid Loligo pealeii (Marine Biological Laboratory, Woods Hole, Mass.) as described (Brady, et al. (1985) Cell Motil. 5:81-101). Axons were 400-600 μm in diameter and provided ≈5 μl of axoplasm. […] Preparations were analyzed on a ZEISS AXIOMAT with a 100×, 1.3 n.a. objective, and DIC optics. […] Organelle velocities were measured with a Photonics Microscopy C2117 video manipulator (Hamamatsu).

kinesin-1 heavy chain = molecular target: T1, kinesin-1 heavy chain (Rattus norvegicus, UniProt P56536); assay: Binding of kinesin-1 to microtubules after JNK3 treatment; type: biochemical; conditions: kinesin-1 heavy chain treated with JNK3 kinase
T1 construct: coding for the first 584 amino acids of rat KHC (KHC-584); made in house; host or cells: E. coli
T1 sequence (P56536 1-584 limits assumed): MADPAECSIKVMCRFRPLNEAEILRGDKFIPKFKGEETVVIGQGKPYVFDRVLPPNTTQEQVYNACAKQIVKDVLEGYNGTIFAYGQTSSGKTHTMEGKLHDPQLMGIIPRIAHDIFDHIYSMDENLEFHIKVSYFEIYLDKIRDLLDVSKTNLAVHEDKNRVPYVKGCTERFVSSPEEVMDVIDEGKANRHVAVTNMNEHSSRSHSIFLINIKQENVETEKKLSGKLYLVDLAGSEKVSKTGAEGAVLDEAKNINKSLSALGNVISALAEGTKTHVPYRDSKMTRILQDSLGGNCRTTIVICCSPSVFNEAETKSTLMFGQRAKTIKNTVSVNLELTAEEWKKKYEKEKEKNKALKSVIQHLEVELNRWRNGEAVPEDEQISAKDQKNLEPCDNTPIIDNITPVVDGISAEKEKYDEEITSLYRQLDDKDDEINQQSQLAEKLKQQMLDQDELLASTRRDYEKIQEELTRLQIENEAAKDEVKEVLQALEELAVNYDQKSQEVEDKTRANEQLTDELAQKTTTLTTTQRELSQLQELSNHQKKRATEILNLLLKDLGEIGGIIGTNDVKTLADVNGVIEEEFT
Method: Microtubule Binding Assays. Microtubule binding assays was performed according to established methods (Stenoien & Brady (1997) supra). Briefly, three 70% confluent 100-mm culture dishes containing either wild-type or 902-6 SH-SY5Y cells were homogenized with 500 μl of HEM buffer (50 mM HEPES, 1 mM EGTA, 2 mM MgSO4, 1% TRITON X-100, pH 7.2, 1 μM staurosporine, 1 μM K252a, 50 nM okadaic acid and 1/100 mammalian protease inhibitor cocktail (Sigma) at 4° C. Lysates were centrifuged at 50000 rpm for 5 minutes at 4° C.
Six hundred μg of total protein from clarified wild-type or 902-6 SH-SY5Y cells were incubated with 0.2 mg of TAXOL-stabilized microtubules (Cytoskeleton, Denver, Colo.) and 2.5 mM AMP-PNP for 30 minutes at 37° C. Samples were centrifuged for 25 minutes at 50000 rpm (4° C.) over a cushion of 20% sucrose in HEM plus 20 μM TAXOL. Pellets and supernatants were collected and the amount of kinesin in each fraction was assayed by immunoblot with anti-kinesin monoclonal antibodies.
In Vitro Kinesin-1 Phosphorylation. A recombinant cDNA fragment coding for the first 584 amino acids of rat KHC (KHC-584) was subcloned into pET expression vector, expressed in E. coli and purified by nickel affinity chromatography (Qiagen, Valencia, Calif.). […]

[1] = perfused, concentration not given

B1: wild-type Htt: human wild-type Huntingtin (Q20, residues 1-548) produced by in vitro transcription/translation (protein, UniProt P42858 1-548, looked up, fragment)
chain: MATLEKLMKAFESLKSFQQQQQQQQQQQQQQQQQQQQQPPPPPPPPPPPQLPQPPPQAQPLLPQPQPPPPPPPPPPGPAVAEEPLHRPKKELSATKKDRVNHCLTICENIVAQSVRNSPEFQKLLGIAMELFLLCSDDAESDVRMVADECLNKVIKALMDSNLPRLQLELYKEIKKNGAPRSLRAALWRFAELAHLVRPQKCRPYLVNLLPCLTRTSKRPEESVQETLAAAVPKIMASFGNFANDNEIKVLLKAFIANLKSSSPTIRRTAAGSAVSICQHSRRTQYFYSWLLNVLLGLLVPVEDEHSTLLILGVLLTLRYLVPLLQQQVKDTSLKGSFGVTRKEMEVSPSAEQLVQVYELTLHHTQHQDHNVVTGALELLQQLFRTPPPELLQTLTAVGGIGQLTAAKEESGGRSRSGSIVELIAGGGSSCSPVLSRKQKGKVLLGEEEALEDDSESRSDVSSSALTASVKDEISGELAASSGVSTPGSAGHDIITEQPRSQHTLQADSVDLASCDLTSSATDGDEEDILSHSSSQVSAVPSDPAMDL
modifications: Q20
notes: human wild-type Huntingtin (Q20, residues 1-548) produced by in vitro transcription/translation
For B1, which “effect on fast axonal transport” value (fast axonal transport; perfused alone) is on record?
The value was “showed no effect on either direction of fast axonal transport”.

B2: polyQ-Htt: polyQ-expanded Huntingtin (Q46, residues 1-949) produced by in vitro transcription/translation (protein, UniProt P42858 1-949, looked up, fragment)
chain: MATLEKLMKAFESLKSFQQQQQQQQQQQQQQQQQQQQQPPPPPPPPPPPQLPQPPPQAQPLLPQPQPPPPPPPPPPGPAVAEEPLHRPKKELSATKKDRVNHCLTICENIVAQSVRNSPEFQKLLGIAMELFLLCSDDAESDVRMVADECLNKVIKALMDSNLPRLQLELYKEIKKNGAPRSLRAALWRFAELAHLVRPQKCRPYLVNLLPCLTRTSKRPEESVQETLAAAVPKIMASFGNFANDNEIKVLLKAFIANLKSSSPTIRRTAAGSAVSICQHSRRTQYFYSWLLNVLLGLLVPVEDEHSTLLILGVLLTLRYLVPLLQQQVKDTSLKGSFGVTRKEMEVSPSAEQLVQVYELTLHHTQHQDHNVVTGALELLQQLFRTPPPELLQTLTAVGGIGQLTAAKEESGGRSRSGSIVELIAGGGSSCSPVLSRKQKGKVLLGEEEALEDDSESRSDVSSSALTASVKDEISGELAASSGVSTPGSAGHDIITEQPRSQHTLQADSVDLASCDLTSSATDGDEEDILSHSSSQVSAVPSDPAMDLNDGTQASSPISDSSQTTTEGPDSAVTPSDSSEIVLDGTDNQYLGLQIGQPQDEDEEATGILPDEASEAFRNSSMALQQAHLLKNMSHCRQPSDSSVDKFVLRDEATEPGDQENKPCRIKGDIGQSTDDDSAPLVHCVRLLSASFLLTGGKNVLVPDRDVRVSVKALALSCVGAAVALHPESFFSKLYKVPLDTTEYPEEQYVSDILNYIDHGDPQVRGATAILCGTLICSILSRSRFHVGDWMGTIRTLTGNTFSLADCIPLLRKTLKDESSVTCKLACTAVRNCVMSLCSSSYSELGLQLIIDVLTLRNSSYWLVRTELLETLAEIDFRLVSFLEAKAENLHRGAHHYTGLLKLQERVLNNVVIHLLGDEDPRVRHVAAASLIRLVPKLFYKCDQGQADP
modifications: polyQ expanded to Q46
notes: polyQ-expanded Huntingtin (Q46, residues 1-949) produced by in vitro transcription/translation
B2 was tested. Which “effect on fast axonal transport” value (fast axonal transport; perfused alone) did it give?
The value was “striking inhibition of fast axonal transport rates”.

B3: JNK3: recombinant, active JNK3 protein (protein, UniProt P53779 1-464, looked up)
Mitogen-activated protein …: MSLHFLYYCSEPTLDVKIAFCQGFDKQVDVSYIAKHYNMSKSKVDNQFYSVEVGDSTFTVLKRYQNLKPIGSGAQGIVCAAYDAVLDRNVAIKKLSRPFQNQTHAKRAYRELVLMKCVNHKNIISLLNVFTPQKTLEEFQDVYLVMELMDANLCQVIQMELDHERMSYLLYQMLCGIKHLHSAGIIHRDLKPSNIVVKSDCTLKILDFGLARTAGTSFMMTPYVVTRYYRAPEVILGMGYKENVDIWSVGCIMGEMVRHKILFPGRDYIDQWNKVIEQLGTPCPEFMKKLQPTVRNYVENRPKYAGLTFPKLFPDSLFPADSEHNKLKASQARDLLSKMLVIDPAKRISVDDALQHPYINVWYDPAEVEAPPPQIYDKQLDEREHTIEEWKELIYKEVMNSEEKTKNGVVKGQPSPSGAAVNSSESLPPSSSVNDISSMSTDQTLASDTDSSLEASAGPLGCCR
Which results are given for B3?
mean rate for anterograde fast axonal transport (fast axonal transport; [1]): 0.9 µM/s; retrograde, cytoplasmic dynein-dependent fast axonal transport mean rate (fast axonal transport; [1]): 1.25 µM/s; effect on binding of kinesin-1 to microtubules (kinesin-1 heavy chain): inhibits the binding of kinesin-1 to microtubules

B4: JNK1: recombinant, active JNK1 protein (protein, UniProt P45983 1-427, looked up)
Mitogen-activated protein …: MSRSKRDNNFYSVEIGDSTFTVLKRYQNLKPIGSGAQGIVCAAYDAILERNVAIKKLSRPFQNQTHAKRAYRELVLMKCVNHKNIIGLLNVFTPQKSLEEFQDVYIVMELMDANLCQVIQMELDHERMSYLLYQMLCGIKHLHSAGIIHRDLKPSNIVVKSDCTLKILDFGLARTAGTSFMMTPYVVTRYYRAPEVILGMGYKENVDLWSVGCIMGEMVCHKILFPGRDYIDQWNKVIEQLGTPCPEFMKKLQPTVRTYVENRPKYAGYSFEKLFPDVLFPADSEHNKLKASQARDLLSKMLVIDASKRISVDEALQHPYINVWYDPSEAEAPPPKIPDKQLDEREHTIEEWKELIYKEVMDLEERTKNGVIRGQPSPLGAAVINGSQHPSSSSSVNDVSSMSTDPTLASDTDSSLEAAAGPLGCCR
With B4 as the molecule, how does the “effect on fast axonal transport” value (fast axonal transport; perfused at 200 nM) read?
Its value is “did not show any effect on either direction of fast axonal transport”.
